Key:
[1] = substrate: CC1(C)S[C@@H]2[C@H](NC(=O)Cc3ccccc3)C(=O)N2[C@H]1C(=O)O; experiment: (§1) Activity of Klebsiella pneumoniae Beta-Lactamase SHV-1
[2] = substrate: CC1(C)S[C@@H]2[C@H](NC(=O)[C@H](C(=O)O)c3ccsc3)C(=O)N2[C@H]1C(=O)O; experiment: as §1
[3] = substrate: CO/N=C(\C(=O)N[C@@H]1C(=O)N2C(C(=O)O)=C(COC(N)=O)CS[C@H]12)c1ccco1; experiment: as §1
[4] = substrate: CO/N=C(\C(=O)N[C@@H]1C(=O)N2C(C(=O)[O-])=C(C[N+]3(C)CCCC3)CS[C@H]12)c1csc(N)n1; experiment: as §1
[5] = substrate: C[C@H]1[C@H](NC(=O)/C(=N\OC(C)(C)C(=O)O)c2csc(N)n2)C(=O)N1S(=O)(=O)O; experiment: as §1
[6] = substrate: CC1(C)S[C@@H]2[C@H](NC(=O)Cc3ccccc3)C(=O)N2[C@H]1C(=O)O; experiment: (§2) Ratio of Kcat to Km for Klebsiella pneumoniae Beta-Lactamase SHV-55
[7] = substrate: CC1(C)S[C@@H]2[C@H](NC(=O)[C@H](C(=O)O)c3ccsc3)C(=O)N2[C@H]1C(=O)O; experiment: as §2
[8] = substrate: CCN1CCN(C(=O)N[C@@H](C(=O)N[C@@H]2C(=O)N3[C@@H]2SC(C)(C)[C@@H]3C(=O)O)c2ccccc2)C(=O)C1=O; experiment: as §2
[9] = substrate: CO/N=C(\C(=O)N[C@@H]1C(=O)N2C(C(=O)O)=C(COC(N)=O)CS[C@H]12)c1ccco1; experiment: as §2
[10] = substrate: CO/N=C(\C(=O)N[C@@H]1C(=O)N2C(C(=O)[O-])=C(C[N+]3(C)CCCC3)CS[C@H]12)c1csc(N)n1; experiment: as §2
[11] = substrate: CC1(C)S[C@@H]2[C@H](NC(=O)Cc3ccccc3)C(=O)N2[C@H]1C(=O)O; experiment: (§3) Activity of Klebsiella pneumoniae Beta-Lactamase SHV-55
[12] = substrate: CC1(C)S[C@@H]2[C@H](NC(=O)[C@H](C(=O)O)c3ccsc3)C(=O)N2[C@H]1C(=O)O; experiment: as §3
[13] = substrate: CCN1CCN(C(=O)N[C@@H](C(=O)N[C@@H]2C(=O)N3[C@@H]2SC(C)(C)[C@@H]3C(=O)O)c2ccccc2)C(=O)C1=O; experiment: as §3
[14] = substrate: CO/N=C(\C(=O)N[C@@H]1C(=O)N2C(C(=O)O)=C(COC(N)=O)CS[C@H]12)c1ccco1; experiment: as §3
[15] = substrate: CO/N=C(\C(=O)N[C@@H]1C(=O)N2C(C(=O)[O-])=C(C[N+]3(C)CCCC3)CS[C@H]12)c1csc(N)n1; experiment: as §3
[16] = substrate: C[C@H]1[C@H](NC(=O)/C(=N\OC(C)(C)C(=O)O)c2csc(N)n2)C(=O)N1S(=O)(=O)O; experiment: as §3

B1: Beta-lactamase SHV-1 (Klebsiella pneumoniae), P0AD64 (protein)
chain: MRYIRLCIISLLATLPLAVHASPQPLEQIKLSESQLSGRVGMIEMDLASGRTLTAWRADERFPMMSTFKVVLCGAVLARVDAGDEQLERKIHYRQQDLVDYSPVSEKHLADGMTVGELCAAAITMSDNSAANLLLATVGGPAGLTAFLRQIGDNVTRLDRWETELNEALPGDARDTTTPASMAATLRKLLTSQRLSARSQRQLLQWMVDDRVAGPLIRSVLPAGWFIADKTGAGERGARGIVALLGPNNKAERIVVIYLRDTPASMAERNQQIAGIGAALIEHWQR
B1 gave a Km [1] of 23 µM, a kcat [2] of 220 s⁻¹ and a Km [3] of 80 µM. The kcat [3] was < 0.1 s⁻¹, the Km [4] was 149 µM and the kcat [4] was < 0.1 s⁻¹. The kcat [5] was < 0.1 s⁻¹.

B2: Beta-lactamase SHV-55 (Klebsiella pneumoniae), Q4TVR4 (protein)
chain: MRFIRLCIISLLATLPLAVHASPQPLEQIKLSESQLSGRVGMIEMDLASGRTLTAWRADERFPMMSTFKVVLCGAVLARVDAGDEQLERKIHYRQQDLVDYSPVSEKHLADGMTVGELCAAAITMSDNSAANLLLATVGGPAGLTAFLRQIGDNVTRLDRWETELNEALPGDARDTTTPASMAATLRKLLTSQRLSARSQRQLLQWMVDDRVAGPLIRSVLPAGWFIADKTGASKRGARGIVALLGPNNKAERIVVIYLRDTPASMAERNQQIAGIGAALIEHWQR
Protein B2 has a kcat/Km [6] of 5.3e+06 M⁻¹ s⁻¹, a kcat/Km [7] of 1.5e+06 M⁻¹ s⁻¹ and a kcat/Km [8] of 3.7e+06 M⁻¹ s⁻¹. The kcat/Km [9] was 300000 M⁻¹ s⁻¹, the kcat/Km [10] was 200000 M⁻¹ s⁻¹ and the Km [11] was 5 µM. It also gave a Km [12] of 6 µM, a kcat [12] of 8 s⁻¹ and a Km [13] of 8 µM. The kcat [13] was 27 s⁻¹, the kcat [14] was 7 s⁻¹ and the Km [15] was 149 µM. For the same protein, the kcat [15] was 30 s⁻¹, the Km [16] was 5 µM and the kcat [16] was < 0.1 s⁻¹.

— ChEMBL document CHEMBL1255339, “Biochemical characterization of SHV-55, an extended-spectrum class A beta-lactamase from Klebsiella pneumoniae” (Antimicrob Agents Chemother, 2008)
